Source: patent US20080280827A1

What was measured:
[1] = biological target: recombinant human LAP (R & D) (UniProt P01137)
[2] = biological target: plasmin/plasma kallikrein; assay: cell-based or functional assay

Sequence of recombinant human LAP (R & D) (P01137 whole entry, looked up): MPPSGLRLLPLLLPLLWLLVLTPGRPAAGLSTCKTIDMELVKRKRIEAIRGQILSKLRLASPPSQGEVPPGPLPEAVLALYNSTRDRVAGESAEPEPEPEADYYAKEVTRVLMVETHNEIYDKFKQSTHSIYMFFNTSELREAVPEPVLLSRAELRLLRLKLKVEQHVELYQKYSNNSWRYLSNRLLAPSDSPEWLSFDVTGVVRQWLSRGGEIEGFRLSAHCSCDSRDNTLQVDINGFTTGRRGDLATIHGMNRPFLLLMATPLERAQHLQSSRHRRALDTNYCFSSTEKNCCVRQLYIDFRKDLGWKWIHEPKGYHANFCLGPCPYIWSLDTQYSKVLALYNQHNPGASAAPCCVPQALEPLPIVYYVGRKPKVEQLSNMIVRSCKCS

Row | Molecule | inhibition of generation of active TGF-β in conditioned medium of rat hepatic stellate cells (ELISA, peptide 0.5 mM) [2] [%] | other results
1 | plasma kallikrein (SIGMA) |  | LAP cleavage reaction (western blot: LAP 41 kDa, LAP degradation product 38 kDa) [1]: attenuation of LAP band found in panel A, and generation of LAP degradation product found in panel B
2 | QILSKLRLASP [QP peptide (Gln-Ile-Leu-Ser-Lys-Leu-Arg-Leu-Ala-Ser-Pro)] | 55 | 
3 | QILSQQQQASP [QPQ peptide] | 90 | 
4 | TGVVRQWLSRG [T200 peptide (Thr-Gly-Val-Val-Arg-Gln-Trp-Leu-Ser-Arg-Gly)] |  | amount of active TGF-β generated into the conditioned medium, relative to control [2]: 74 % of control
